From patent US6682731 (LUDWIG INSTITUTE FOR CANCER RESEARCH, dated 2004)

Target: T1, HLA-A2 molecule (MHC class I heterodimer, no peptide of the filing added) (human)
T1 construct: as control target of the CTL assays it stood on T2 cells without added peptide or on COS-7 cells transfected with HLA-A2 alone; The subtype is printed only as HLA-A2.01 for the transfected gene; also called HLA-A2.01; MHC class-I molecule
Test: HLA-A2 assembly/stabilisation in 0.174 cell lysate with 10 and 20 uM peptide, immunoprecipitation with mAb BB7.2, gel
Protocol: It is an HLA-A2 presenting cell line deficient in the pathway which supplies peptides to the endoplasmic reticulum, the site of assembly of MHC class-I heterodimers. The cell line can assemble MHC class-I molecules, but these are unstable and, on cell lysis, dissociate into free heavy and light chains during overnight incubation. The heterodimers can, however, be stabilized in vitro via addition of appropriate peptide ligands. […] Thus, the stabilized molecules can be immunoprecipitated with antibodies specific for the MHC class-I molecule.
In the first part of these experiments, peptides were tested to determine if they facilitated assembly of HLA-A2 in the cell line. […] The cells were then washed, once, with phosphate buffered saline, and then resuspended in 10 ml of lysis buffer (0.5% NP-40; 0.5% Mega 9, 150 mM NaCl, 5 mM EDTA, 50 mM Tris [pH 7.5], 2 mM phenylmethylsulfonylfluoride, 5 mM iodoacetamide). The lysates were then incubated with peptide (10 μM and 20 μM), for 15–18 hours. Nuclei were then pelleted in a microfuge, and the lysates were precleared, overnight, at 4° C. with 0.2 ml of washed, 10% (w/v) Staphylococcus A organisms. […] The mixtures were incubated for 90 minutes on ice, followed by addition of bovine serum albumin to 1% (w/v), and 100 ul of 5% (w/v) protein-A Sepharose beads.

Binder: TLVEVTLGEV [peptide SEQ ID NO: 7, Thr Leu Val Glu Val Thr Leu Gly Glu Val]
- binding result: binds
